Reference: article PMC6282620, “Structural and biochemical characterization of Plasmodium falciparum Hsp70‐x reveals functional versatility of its C‐terminal EEVN motif” (Proteins, 2018)

Legend:
[1] = biological target: PfHsp70‐x C‐terminal truncated version with a missing EEVN motif (Plasmodium falciparum); experiment: SPR; PfHsp70‐x or PfHsp70‐xT immobilised on ProteOn GLC chips, hHop as analyte at 125-2000 nM, 25°C, PBS‐Tween pH 7.4, no nucleotide, Langmuir model
[2] = biological target: Plasmodium falciparum Hsp70‐x (full length) (Plasmodium falciparum); experiment: as above
[3] = biological target: PfHsp70‐x C‐terminal truncated version with a missing EEVN motif (Plasmodium falciparum); experiment: SPR; PfHsp70‐x or PfHsp70‐xT immobilised on ProteOn GLC chips, hHop as analyte at 125-2000 nM, 25°C, PBS‐Tween pH 7.4, with 5 mM ADP, Langmuir model
[4] = biological target: Plasmodium falciparum Hsp70‐x (full length) (Plasmodium falciparum); experiment: as above
[5] = biological target: PfHsp70‐x C‐terminal truncated version with a missing EEVN motif (Plasmodium falciparum); experiment: SPR; PfHsp70‐x or PfHsp70‐xT immobilised on ProteOn GLC chips, hHop as analyte at 125-2000 nM, 25°C, PBS‐Tween pH 7.4, with 5 mM ATP, Langmuir model
[6] = biological target: Plasmodium falciparum Hsp70‐x (full length) (Plasmodium falciparum); experiment: as above

In the case of “human Hsp70‐Hsp90 organizing protein (from UniProt P31948 1-543) (natural protein)”, the Kd [1] is reported as 2100 nM, the koff [1] is reported as 1.01e-05 s⁻¹ and the kon [1] is reported as 24.7 M⁻¹ s⁻¹. It also gave a Kd [2] of 30.1 nM, a koff [2] of 2.3e-05 s⁻¹ and a kon [2] of 4300 M⁻¹ s⁻¹. The Kd [3] was 1660 nM, the koff [3] was 2.1e-05 s⁻¹ and the kon [3] was 42.6 M⁻¹ s⁻¹. For the same substance, the Kd [4] was 23.1 nM, the koff [4] was 3.7e-05 s⁻¹ and the kon [4] was 3300 M⁻¹ s⁻¹. For the same substance, the Kd [5] was 41000 nM, the koff [5] was 0.00032 s⁻¹ and the kon [5] was 54.1 M⁻¹ s⁻¹. It also gave a Kd [6] of 380 nM, a koff [6] of 0.00044 s⁻¹ and a kon [6] of 3470 M⁻¹ s⁻¹.
